Laboratory results taken from paper PMC11250262, “Understanding the genetic complexity of puberty timing across the allele frequency spectrum” (Nature Genetics, 2024).

Target: MC3R-RlucII (human, UniProt P41968 1-323)
Assay: cell-based or functional assay

Sequence of MC3R-RlucII (P41968 whole entry): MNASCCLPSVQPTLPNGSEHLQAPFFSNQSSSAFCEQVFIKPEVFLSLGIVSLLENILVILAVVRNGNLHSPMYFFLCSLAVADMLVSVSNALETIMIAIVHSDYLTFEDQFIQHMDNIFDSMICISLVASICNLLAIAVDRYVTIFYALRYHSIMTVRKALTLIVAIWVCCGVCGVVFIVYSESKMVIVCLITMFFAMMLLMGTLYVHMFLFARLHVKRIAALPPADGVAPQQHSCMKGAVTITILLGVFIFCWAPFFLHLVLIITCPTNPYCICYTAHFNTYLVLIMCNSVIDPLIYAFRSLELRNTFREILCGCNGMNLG

B1: GPR83-Venus (receptor, human, UniProt Q9NYM4-1 17-423, looked up)
chain: TEPHEGRADEQSAEAALAVPNASHFFSWNNYTFSDWQNFVGRRRYGAESQNPTVKALLIVAYSFIIVFSLFGNVLVCHVIFKNQRMHSATSLFIVNLAVADIMITLLNTPFTLVRFVNSTWIFGKGMCHVSRFAQYCSLHVSALTLTAIAVDRHQVIMHPLKPRISITKGVIYIAVIWTMATFFSLPHAICQKLFTFKYSEDIVRSLCLPDFPEPADLFWKYLDLATFILLYILPLLIISVAYARVAKKLWLCNMIGDVTTEQYFALRRKKKKTIKMLMLVVVLFALCWFPLNCYVLLLSSKVIRTNNALYFAFHWFAMSSTCYNPFIYCWLNENFRIELKALLSMCQRPPKPQEDRPPSPVPSFRVAWTEKNDGQRAPLANNLLPTSQLQSGKTDLSSVEPIVTMS
- NDP-αMSH-stimulated cAMP production (GloSensor, area under the curve) in HEK293 cells cotransfected with GPR83 and MC3R (1:1 ratio), against MC3R alone: 43%
